Measured values taken from publication PMC10148413 (2023).

Key:
[1] = molecular target: histone H3 (unmodified) (Drosophila melanogaster, UniProt P02299)
[2] = molecular target: histone H3 (K4 trimethylated) (Drosophila melanogaster, UniProt P02299)

| Kd [1] | Kd [2] | Binder |
| --- | --- | --- |
| ~600 nM |  | Caf1 (protein) MVDRSDNAAESFDDAVEERVINEEYKIWKKNTPFLYDLVMTHALEWPSLTAQWLPDVTKQDGKDYSVHRLILGTHTSDEQNHLLIASVQLPSEDAQFDGSHYDNEKGEFGGFGSVCGKIEIEIKINHEGEVNRARYMPQNACVIATKTPSSDVLVFDYTKHPSKPEPSGECQPDLRLRGHQKEGYGLSWNPNLNGYLLSASDDHTICLWDINATPKEHRVIDAKNIFTGHTAVVEDVAWHLLHESLFGSVADDQKLMIWDTRNNNTSKPSHTVDAHTAEVNCLSFNPYSEFILATGSADKTVALWDLRNLKLKLHSFESHKDEIFQVQWSPHNETILASSGTDRRLHVWDLSKIGEEQSTEDAEDGPPELLFIHGGHTAKISDFSWNPNEPWIICSVSEDNIMQVWQMAENVYNDEEPEIPASELETNTA |
|  | > 70000 nM | Caf1 (protein, H3K4me3) MVDRSDNAAESFDDAVEERVINEEYKIWKKNTPFLYDLVMTHALEWPSLTAQWLPDVTKQDGKDYSVHRLILGTHTSDEQNHLLIASVQLPSEDAQFDGSHYDNEKGEFGGFGSVCGKIEIEIKINHEGEVNRARYMPQNACVIATKTPSSDVLVFDYTKHPSKPEPSGECQPDLRLRGHQKEGYGLSWNPNLNGYLLSASDDHTICLWDINATPKEHRVIDAKNIFTGHTAVVEDVAWHLLHESLFGSVADDQKLMIWDTRNNNTSKPSHTVDAHTAEVNCLSFNPYSEFILATGSADKTVALWDLRNLKLKLHSFESHKDEIFQVQWSPHNETILASSGTDRRLHVWDLSKIGEEQSTEDAEDGPPELLFIHGGHTAKISDFSWNPNEPWIICSVSEDNIMQVWQMAENVYNDEEPEIPASELETNTA |
